# Laboratory results from patent publication US11529425B2, “Immunoconjugates comprising signal regulatory protein alpha” (DINGFU BIOTARGET CO., LTD., priority 2017, dated 2022).
# Experiments:
# [1] = reported in treated animal; cited from earlier work
# [2] = test system: A375 cell (expressing CD47) and A375-PD-L1 tumor cells (expressing both CD47 and PD-L1); test: Tumor binding in excess erythrocyte antigen sink, flow cytometry; conditions: 15-fold excess of RBCs, FIG. 6a
# Description: An important concern about CD47-based therapeutics is the expression of the target on the surface of erythrocyte, which has the potential to act as a large antigen sink and cause hematological toxicity. […] The binding of hu56di-SIRPα to tumor cell in excess human erythrocytes antigen sink was therefore assessed by flow cytometry. A375 cell (expressing CD47) and A375-PD-L1 tumor cells (expressing both CD47 and PD-L1) were mixed with a 15-fold excess of RBCs, and then incubated with 20 μg/ml hu56di-SIRPα, SIRPα-Fc IgG1 or AB6.12 IgG1 or isotype control (human IgG1) at 4° C. for 30 min. Then the cells were washed to remove unbound proteins and incubated with an anti-hlgG Fc gamma specific PE antibody at 4° C. for 20 min. The cells were analyzed by flow cytometry (Life Technology). The gate of erythrocytes was assessed by anti-human CD235a (eBiosciences Cat #12-9987-80).
# Then the cells were washed to remove unbound proteins and incubated with an anti-hlgG Fc gamma specific PE antibody at 4° C. for 20 min. The cells were analyzed by flow cytometry (Life Technology). The gate of erythrocytes was assessed by anti-human CD235a (eBiosciences Cat #12-9987-80).
# [3] = reported after being injected into human; cited from earlier work
# [4] = test system: RBC; test: Binding to fresh RBC diluted 2500 times, flow cytometry; conditions: 20 μg ml^−1, FIG. 6f
# Description: Similarly, fresh RBC cell was diluted 2500 times, then it was incubated with 20 μg ml^−1 isotype control (human IgG1), hu56di-SIRPα, hu56di-CV1, SIRPα-Fc IgG1 and AB6.12 IgG1, respectively. The results were shown in FIG. 6f, in which serial numbers of 1, 2, 3, 4 and 5 correspond to isotype control, hu56di-SIRPα, hu56di-CV1, SIRPα-Fc IgG1 and AB6.12 IgG1.
# [5] = test system: human erythrocytes (RBC); test: RBC binding in tumor cell / 15-fold excess RBC mix, flow cytometry; conditions: tumor cells mixed with 15-fold excess of RBCs, 20 μg/ml, FIG. 6a-6e
# [6] = target: T1, CD47-muFc (Homo sapiens, UniProt Q08722); test: Binding kinetics by bio-layer inferometry (BLI), Octet K2
# T1 construct: made in house; host or cells: transiently transfected FreeStyle 293F cells (HEK293)
# Text: The amino acid sequence of the human CD47 extracellular domain (i.e., the 19th residue to the 141th residue in Q08722) was obtained according to the amino acid sequence of human CD47 (Q08722) in the protein database Uniprot. According to the amino acid sequence of the constant region of murine immunoglobulin gamma1 (P01868) in the protein database Uniprot, the amino acid sequence of muFc (i.e., the 112th residue to the 213th residue in P01868) was obtained. The DNAworks Online Tool (helixweb.nih.gov) was used to design the corresponding coding DNA sequence to obtain the CD47-muFc fusion protein gene, and the DNA fragment was obtained by artificial synthesis. The synthetic gene sequences were cloned into commercial vector pcDNA4/myc-HisA (Invitrogen, V863-20) by Fermentas HindIII and EcoRI. The recombinant plasmids were then sequenced for confirmation, thereby obtaining the plasmid DNA of pcDNA4-CD47-muFc. The amino acid sequences of CD47-muFc is as set forth in SEQ ID NO: 61, and the polynucleotide sequence encoding it is as set forth in SEQ ID NO: 62.
# Binding kinetics of a hu56di-SIRPα immunoconjugate or control antibodies (SIRPα-Fc IgG1 and AB6.12 IgG1) were determined by the bio-layer inferometry (BLI) method using Octet K2 system (FortéBio). All experiments were performed at 25° C. under a PBS buffer containing 0.5% BSA and 0.5% Tween 20, pH 7.2. CD47-muFc was immobilized onto AHC Biosensors, which were subsequently used in association (with hu56di-SIRPα, SIRPα-Fc IgG1 or AB6.12 IgG1) and dissociation measurements each performed for a time window of 40 seconds and 300 seconds, respectively. After the above steps, the subtracted binding interference data were applied to the calculations of binding constants using the FortéBio analysis software provided with the instrument.
# [7] = test system: mouse RBCs; test: Mouse RBC binding, MC38 tumor cells mixed with 15-fold excess of mouse RBCs; conditions: MC38 cells with 15-fold excess of mouse RBCs, 20 μg/ml, FIG. 6g/6h
# Description: Similarly, MC38 tumor cells were mixed with a 15-fold excess of mouse RBCs, and then incubated with 20 μg/ml, a-mPD-L1, mSIRPα-Fc, CV1-Fc, mPD-L1-CV1, mPD-L1-mSIRPα or isotype control (human IgG1) at 4° C. for 30 min. Then the cells were washed to remove unbound proteins and incubated with an anti-hlgG Fc gamma specific PE antibody at 4° C. for 20 min. The cells were analyzed by flow cytometry (Life Technology). The gate of erythrocytes was assessed by anti-mouse RBC antibody (abcam Cat #ab106101). In FIG. 6g, serial numbers of 1, 2, 3 and 4 correspond to isotype control (human IgG1), mSIRPα-Fc, a-mPD-L1 and mPD-L1-mSIRPα. In FIG. 6h, serial numbers of 1, 2, 3 and 4 correspond to isotype control (human IgG1), CV1-Fc, a-mPD-L1 and mPD-L1-CV1.
# T1 sequence (Q08722 with tags, fused parts or gaps): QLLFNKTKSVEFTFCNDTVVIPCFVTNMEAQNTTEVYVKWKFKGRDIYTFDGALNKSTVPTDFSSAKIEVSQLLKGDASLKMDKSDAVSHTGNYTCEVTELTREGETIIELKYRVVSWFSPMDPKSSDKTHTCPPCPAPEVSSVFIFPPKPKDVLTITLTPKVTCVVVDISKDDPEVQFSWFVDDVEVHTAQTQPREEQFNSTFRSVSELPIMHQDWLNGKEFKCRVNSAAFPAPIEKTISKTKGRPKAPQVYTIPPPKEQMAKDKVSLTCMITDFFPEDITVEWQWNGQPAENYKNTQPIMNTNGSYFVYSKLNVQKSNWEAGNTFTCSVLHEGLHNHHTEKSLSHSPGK
binding affinity to CD47 (comparison in words) ([6]; Table 6),"kon ([6]; association 40 seconds, 25° C.) [M⁻¹ s⁻¹]","kdis ([6]; dissociation 300 seconds, 25° C.) [s⁻¹]",Substance,anemia [1],"preference of binding, tumor cells versus RBC [2]",thrombocytopenia [3],binding to RBC [4],binding to RBC (MFI) [5],binding to mouse RBC [7]
comparable binding affinity to CD47,650000,0.00377,"SIRPα-Fc IgG1: reference homodimer: human SIRPα fused via peptide linker to human IgG1 Fc, SEQ ID NO: 69",anemia has been reported,bound tumor cells and RBCs at the same time,induced thrombocytopenia,weaker binding to RBC than hu56di-CV1 and AB6.12 IgG1,bind to RBC,–
–,–,–,"mSIRPα-Fc: mouse SIRPα fused via linker to human IgG1-Fc, SEQ ID NO: 152, Group 18",–,–,–,–,–,weaker binding to RBC than mPD-L1-CV1
